# Data: paper PMC2830194
# What was measured:
# [1] = target: FlhA (Cpn0363), putative flagellar integral membrane protein, full length, bacterial-2-hybrid fusion (C. pneumoniae); test: two-hybrid; bacterial-2-hybrid in E. coli DHP-1, proteins fused to adenylate cyclase fragments from pT18 and pT25; β-galactosidase activity, in triplicate; cut off for a positive interaction 577 units (table footnote; 677 in the methods)
# [2] = target: Full length His-Cpn0859 (C. pneumoniae); test: cross-linking
# [3] = target: CdsD-FHA-2, bacterial-2-hybrid fusion (positive control) (C. pneumoniae); test: two-hybrid; bacterial-2-hybrid in E. coli DHP-1, proteins fused to adenylate cyclase fragments from pT18 and pT25; β-galactosidase activity, in triplicate; cut off for a positive interaction 577 units (table footnote; 677 in the methods)
# [4] = target: CopN, putative T3S plug protein, bacterial-2-hybrid fusion (C. pneumoniae); test: two-hybrid
# [5] = target: CdsL, putative T3S ATPase tethering protein, bacterial-2-hybrid fusion (C. pneumoniae); test: two-hybrid; bacterial-2-hybrid in E. coli DHP-1, proteins fused to adenylate cyclase fragments from pT18 and pT25; β-galactosidase activity, in triplicate; cut off for a positive interaction 577 units (table footnote; 677 in the methods)
Substance,β-galactosidase activity (units/mg bacteria) [1],other results
"CdsL, putative T3S ATPase tethering protein, bacterial-2-hybrid fusion (natural protein)",832,
"Cpn0322 (putative CdsU, YscU ortholog), bacterial-2-hybrid fusion (natural protein)",780,
Full length His-Cpn0859 (natural protein),,stoichiometry N [2]: 2
"PknD, bacterial-2-hybrid fusion (positive control) (natural protein)",,β-galactosidase activity (units/mg bacteria) [3]: 996
"FliF (Cpn0860), putative flagellar MS ring protein, full length, bacterial-2-hybrid fusion (natural protein)",847,
"FliI (Cpn0858), putative flagellar ATPase, bacterial-2-hybrid fusion (enzyme)",943,β-galactosidase activity (units/mg bacteria) [4]: 943; β-galactosidase activity (units/mg bacteria) [5]: 874
